Data as given in US20030224972A1.

Biological target: MC1-R
Test: cell-based or functional assay

Substance: Recombinant mouse agouti signal protein (from UniProt Q03288 23-131) (ligand)
- inhibits activation of the MC1-R: 220 pM
